The text below walks through data of patent US9598479B2, “Nanoparticle-peptide compositions” (Midatech Ltd., priority 2011, dated 2017).

Numbered stars: 1 amine (or outer) side, 2 acyl side, 3 side chain; on linkers, the order of the positions; unused ones are H or OH. Square brackets hold non-standard residues; d marks the D form. Ends that are not written are not given here. Cysteamide = C(CS[*:3])N[*:1]; Mpa = O=C(O)CCS

Data set [1] in a line: Aggregation and solubilisation of nanoparticle preparations. Format: physicochemical. To be noted: for solubility of aggregates in alkali: 300 mM NaOH; for aggregation of NP after repeat production: 75% methanol in the synthesis stage; for aggregation of NP after production: first production (95% methanol); for solubility of aggregates: water, 10% acetic acid, PBS, DMSO or DMF. The procedure: The following method was used; 1.5 μmole peptide was dissolved in 2 ml methanol, followed by the addition of 30 μmole GlcC2 in 200 μl methanol, and 116 μl of aqueous gold chloride containing 10 μmole Au. The sample was vortexed for 30 sec, shaken for approximately 5 min and then under rapid vortexing for a total of 30 sec 200 μl of 1M NaBH4 was added, tubes were sealed and then gently shaken for 1.5 h.
Samples were bench spun the supernatant removed and the dark pellet dissolved in 2 ml water, and then transferred to a 10 kDa vivaspin for a total of 4 times 2 ml water washes each of 8 min at 5 Krpm.
Nanoparticles (NPs) were removed from the vivaspins and made up to 500 μl with water, they were then subjected to 15 Krpm bench spin to remove any large aggregates.
NP's 2-5 were produced by a variation using 75% methanol not 95% in the synthesis stage.

The subject of another data set is LK^b cells. Description: Flow cytometry measure of […] presentation (25.D1.16 antibody). To be noted: for processing and presentation of SIINFEKL from GNP, flow cytometric method: LKb cells pulsed 2 h with GNP equivalent to 1, 0.1 or 0.01 ug/mL peptide, FIG. 1A-D. Format: cell-based, mouse. The procedure: (§1) Next, GNPs were pulsed to the equivalent of 1 ug/mL peptide (Green), 0.1 ug/mL (Blue), or 0.01 ug/mL (Red). After two hours, cells were washed, and subjected to (A-D) flow cytometric labelling with 25.D1.16 (Angel) antibody, or (E) combined with B3Z CTL for overnight co-culture. The next day, cells were lysed and Beta-galactosidase activity was measured.
In order to analyze epitope linkage to nanoparticles, we first optimized a readout assay for the presentation of the epitope released from the nanoparticle. For this purpose, […] (SEQ ID NO: 2) presentation in LK^b cells was evaluated. As mentioned earlier, more than one reagent exists. Of the two methods tested, one is flow cytometry-based, while the other is cell-based. The flow cytometry-based method begins with pulsing LK^b cells with differing amounts of […] (SEQ ID NO: 2) peptide. After allowing enough time for peptide binding to surface K^b molecules, cells were washed and incubated with the 25.D1.16 antibody which is specific to the […]:K^b (SEQ ID NO: 2) complex. Next, the cells were secondarily labelled and subjected to flow cytometry analysis using unpulsed cells as the background reading.
LK^b cells were treated with varying amounts of […] (SEQ ID NO: 2) peptides. […] Cells were then washed two times in PBS and incubated for 30 min on ice with FITC-labeled goat anti-mouse IgG secondary antibody (Caltag Laboratories, Burlingham, Calif.). Finally, cells were washed two times with PBS and resuspended in PBS+0.1% BSA for flow cytometry on a Guava EasyCyte Plus Flow Cytometer (Millipore, Billerica, Mass.) and analyzed using the accompanying software.
(§2) To assay […] (SEQ ID NO: 2) presentation using a flow cytometric or cell-based method, we pulsed LK^b cells in a 15 mL conical at 37° C. for 2 hrs. Following this incubation, cells were washed once with PBS and then subjected to detection using flow cytometry or added to B3Z cells at an effector to target ratio of 1:1.
(§3) […] (SEQ ID NO: 2), an epitope derived from ovalbumin that is presented in the context of the murine MHCI molecule H-2 Kb, was measured using two methods. One method utilized a TCR-like antibody termed 25.D1.16, also referred to as “Angel”, that recognize […] (SEQ ID NO: 2)/MHCI complex. In addition, we assessed presentation using the B3Z, […] (SEQ ID NO: 2) peptide specific CTL hybridoma, which expresses β-galactosidase under the NFAT (CTL signaling molecule) promoter, which upon activation express beta-gal measured by a light emitting substrate.

Data set [2] relates to B3Z (OVA peptide specific T cell line). The data set can be described thus: B3Z T cell activation (β-galactosidase) measure of antigen presentation. Format: cell-based, mouse. To be noted: for processing and presentation of SIINFEKL from GNP, CTL-based method: LKb cells pulsed 2 h with GNP equivalent to 1, 0.1 or 0.01 ug/mL peptide, overnight co-culture with B3Z, FIG. 1E. The procedure: as §1
Another form of epitope-specific antigen presentation is the measurement of T cell activation by the MHCI peptide complex. Here, we used B3Z (OVA peptide specific T cell line), which recognizes […] (SEQ ID NO: 2) the context of K^b. As a convenient measure, this T cell line contains β-galactosidase cloned with the NFAT promoter. Upon peptide recognition and T cell activation, β-galactosidase is expressed and conversion of a detectible substrate serves as an excellent measure of antigen presentation to T cells.
To evaluate this method, we performed a similar experiment as above. LK^b cells were pulsed with […] (SEQ ID NO: 2) peptide, washed, and then co-incubated with B3Z T cell line overnight. The next day, cells were lysed and β-galactosidase was measured using a luminescent substrate. As expected, the resolution of this method was similar to the previous method with the limit of detection at approximately 5 ng/mL.
The […]:Kb-specific T hybridoma (B3Z) (SEQ ID NO: 2) expresses (β-galactosidase upon recognition of peptide-MHC class I complexes and has been described previously (3, 6). T cell hybridomas were maintained in complete RPMI plus 10% FCS and 0.05 mM 2-ME. Activation was measured using the luminescent substrate Galactolight Plus (Applied Biosystems, Foster City, Calif.) according to the manufacturer's instructions. Light intensity was measured using a TopCount NXT plate reader (Perkin Elmer, Waltham, Mass.).
as §2, §3

Turning to “NP 4: gold nanoparticle with GlcC2 ligands and peptide ligand 4, FLAAYSIINFEKL-N—(CH2)2-SH (FLAAYSIINFEKL-Cysteamide; also: on gold nanoparticle with GlcC2 ligands)”, in data set [1], the “solubility of aggregates in alkali” value was “total NP solubilisation”, the “aggregation of NP after repeat production” value was “formed aggregates”, the “aggregation of NP after production” value is given as “large near complete aggregation” and the solubility of aggregates entry is given as “not soluble”.
With “GNP 8: gold nanoparticle with GlcC2 ligands and peptide ligand 8, HS(CH2)2-CONH-FLAAYSIINFEKL ([Mpa]FLAAYSIINFEKL; numbers in words are those of the source; also: on gold nanoparticle with GlcC2 ligands)”, the “processing and presentation of SIINFEKL from GNP, flow cytometric method” value in the data set with LK^b cells was “good processing and presentation”. Besides, the “presentation from preparations lacking free peptide, flow cytometry” value in the data set with LK^b cells (Sephadex G-50 purified new GNP vs old GNP, FIGS. 3C-E) was “work just as well as those containing peptide”. In data set [2], the “processing and presentation of SIINFEKL from GNP, CTL-based method” value is “good processing and presentation”. For the same substance, in data set [2] (Sephadex G-50 purified new GNP vs old GNP, overnight incubation, FIG. 3F), the “presentation from preparations lacking free peptide, B3Z assay” value is on record as “confirmed”.
For “SIINFEKL (listed as Gallus gallus) [reference compound]”, the “lowest pulse concentration at which surface SIINFEKL:K^b complexes were detected” value in the data set on LK^b cells (LK^b cells pulsed with free SIINFEKL peptide, unpulsed cells as background) worked out at 5 ng/mL. Further, the limit of detection result in data set [2] (LK^b cells pulsed with free SIINFEKL peptide, co-incubated with B3Z overnight, luminescent substrate) is “approximately 5 ng/mL”.
For “NP 3: gold nanoparticle with GlcC2 ligands and peptide ligand 3, FLSIINFEKL-N—(CH2)2-SH (FLSIINFEKL-Cysteamide; also: on gold nanoparticle with GlcC2 ligands)”, in data set [1], the “solubility of aggregates in alkali” value is recorded as “total NP solubilisation”, the “aggregation of NP after repeat production” value is listed as “formed aggregates”, the “aggregation of NP after production” value is given as “large near complete aggregation” and the solubility of aggregates result is on record as “not soluble”.
On to “GNP 12: gold nanoparticle with GlcC2 ligands and peptide ligand 12, HS—(CH2)10-(CH2OCH2)7-CONH-FLAAYSIINFEKL ({HS‑(CH2)10‑(CH2OCH2)7‑CO}-FLAAYSIINFEKL; also: on gold nanoparticle with GlcC2 ligands)”, for which the “processing and presentation of SIINFEKL from GNP, flow cytometric method” value with LK^b cells is “good processing and presentation”. In data set [2], the “processing and presentation of SIINFEKL from GNP, CTL-based method” value was “good processing and presentation”.
“NP2: gold nanoparticle with GlcC2 ligands and peptide ligand 2, SIINFEKL-N—(CH2)2-SH”: in data set [1], the “aggregation of NP after repeat production” value was “‘normal’ NP”.
